Measured values as given in US20020081570A1, “System to detect protein-protein interactions” (priority 2000, published 2002).

Target: T1, syntaxin 1A (Homo sapiens, UniProt Q16623)
T1 construct: expressed in transfected cells; host or cells: yeast (two-hybrid; cotransformations and yeast matings)
Assay: yeast two-hybrid screen (cotransformations and yeast matings)
Type: binding
Details: yeast two hybrid system
Source text: The present inventors completed a yeast two-hybrid screen using Syt 1, syntaxin 1A and synaptobrevin 2 (Vamp 2). Recombinant and native Syt-1 and syntaxin 1A were shown previously to interact in a calcium dependent manner. […] Screens performed using two different approaches—cotransformations and yeast matings—gave identical findings.

T1 sequence (Q16623 whole entry, species assumed): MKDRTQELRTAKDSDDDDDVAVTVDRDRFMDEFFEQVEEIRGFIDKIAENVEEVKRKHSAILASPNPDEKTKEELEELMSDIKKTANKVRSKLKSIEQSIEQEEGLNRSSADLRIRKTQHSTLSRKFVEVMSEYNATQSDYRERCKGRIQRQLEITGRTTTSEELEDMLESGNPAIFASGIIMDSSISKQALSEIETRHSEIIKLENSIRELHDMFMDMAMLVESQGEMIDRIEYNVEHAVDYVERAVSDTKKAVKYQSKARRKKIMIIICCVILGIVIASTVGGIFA

direct interaction with syntaxin 1A | Substance
did not | Syt-1: synaptotagmin I protein used in yeast two-hybrid screen
interact directly | synaptobrevin: synaptobrevin 2 (Vamp 2) protein used in yeast two-hybrid screen
